Test results taken from US20050196404A1.

How the values were obtained:
[1] = target: E-hsp60 SCT (HLA-E SCT harboring the hsp60-derived peptide …) (human); assay: flow cytometry, stably transfected LLC-PK1 cells
[2] = target: E-Cw*03 SCT (HLA-E single chain trimer with the peptide …) (human); assay: flow cytometry, sorted E-Cw*03 SCT LLC-PK1 stable transfectants
[3] = target: E-Cw*03 SCT (HLA-E single chain trimer with the peptide …) (human); assay: flow cytometry, stably transfected LLC-PK1 cells
[4] = target: HLA-E SCD (HLA-E single chain dimer) (human); assay: flow cytometry, stably transfected LLC-PK1 cells

fold less staining than E-Cw*03 SCT [1] [fold]	Substance	percent of cells stained [2] [%]	mean fluorescent intensity (MFI) [3] [MFI]	mean fluorescent intensity (MFI) [4] [MFI]
4 to 5	HLA-E-specific mAb MEM-E/6 (antibody)	–	–	–
–	HLA-E-specific mAb 3D12 (antibody)	100	375	62
